Non-standard residues stand in square brackets, D forms with d. No end group written: not given here. Tyr(3-NO2) = N[C@@H](Cc1ccc(O)c([N+](=O)[O-])c1)C(=O)O; 2Abz = Nc1ccccc1C(=O)O
Columns and labels:
[1] = target: T1, TS5-5 (combined catalytic and disintegrin domain of ADAMTS-5) (Homo sapiens, UniProt Q9UNA0); assay: Cleavage of FRET peptide substrates by TS5-5 in solution (activity/selectivity studies); format: biochemical; conditions: substrate 20 μM, TNC buffer with 0.005% (v/v) Brij-35, 37 °C; mean of 3–4 independent experiments in triplicate
T1 construct: ADAMTS-5 (i.e. TS5-5, residues 264–555); FLAG; made in house; host or cells: HEK293 cells (previously transfected stocks)
T1 sequence (Q9UNA0 264-555): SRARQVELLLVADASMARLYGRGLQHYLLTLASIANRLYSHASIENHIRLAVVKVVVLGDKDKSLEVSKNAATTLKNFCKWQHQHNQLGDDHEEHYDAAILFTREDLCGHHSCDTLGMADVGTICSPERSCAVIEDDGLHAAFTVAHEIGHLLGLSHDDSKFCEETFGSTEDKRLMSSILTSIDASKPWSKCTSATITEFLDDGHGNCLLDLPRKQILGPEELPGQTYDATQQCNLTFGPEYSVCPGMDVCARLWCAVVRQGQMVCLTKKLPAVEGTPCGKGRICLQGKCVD
Method: (§1) All proteinase assays were performed at 37 °C in a SpectraMax M5 spectrophotometer (Molecular Devices, San Jose, USA) using a 96-well black microplate (Greiner bio-one, Stonehouse, UK) unless otherwise stated. […] N-TIMP-3 was purified as described previously[30] and CT-1746 was a gift from Dr. Yoshifumi Itoh (Kennedy Institute of Rheumatology, University of Oxford). All analyses were carried out using Prism 9 software (GraphPad, La Jolla, CA, USA).
To test whether active TS5-5 had been purified, three concentrations of proteinase were assayed. A solution of Abz-TESE↓SRGAIY-Dpa-KK-NH2 (22.22 μM) in freshly prepared TNC buffer with 0.02% (v/v) Brij-35 (180 μL) was added to a 96-well black microplate in triplicate for each proteinase concentration. A substrate-only background control was also added in triplicate (180 μL). The resultant solutions were incubated at 37 °C (30 min). TS5-5 proteinase in TNC buffer with 0.02% (v/v) Brij-35 (20 μL) was added to wells to give final proteinase concentrations of 80 nM, 40 nM and 20 nM. TNC buffer with 0.02% (v/v) Brij-35 (20 μL) was also added to background control wells. The change in RFU was measured at 37 °C for 1 h, with readings every 20 s. Following subtraction of background fluorescence intensity, linear regression analysis of the linear part of each curve was used to determine the cleavage rate, which was expressed as the mean ± SEM in RFU s^–1. For cases where a single concentration of TS5-5 or TS4-4 was assayed, the same procedure was used but with 0.005% (v/v) Brij-35 and using the 5-FAM-AE↓LQGRPISIAK-TAMRA substrate for TS4-4 (0.56 μM). To convert cleavage rates to nM s^–1 nM^–1, the rate in RFU s^–1 was divided by the final concentration of proteinase (nM), then divided by the gradient of the calibration curve for Abz or 5-FAM (expressed in RFU nM^–1).
(§2) Selectivity studies are described for Abz-TESE↓SRGAIY-Dpa-KK-NH2, the library parent peptide 3, and hit peptides 18–26. A solution of Abz-TESE↓SRGAIY-Dpa-KK-NH2 (22.22 μM) in freshly prepared TNC buffer with 0.005% (v/v) Brij-35 (90 μL) was added to a 96-well clear bottom microplate (Greiner bio-one, Stonehouse, UK) in triplicate. A substrate-only background control was also added in triplicate (90 μL). The resultant solutions were incubated at 37 °C (30 min). An ADAMTS or MMP proteinase was added to substrate wells (10 μL) to give a final proteinase concentration of either 50–90 nM (TS4-4), 25–200 nM (TS5-5), 5–10 nM (MMP-2ΔC), 30 nM (MMP-9ΔC), 92 nM (MMP-1), or 3 μM (MMP-3). TNC buffer with 0.005% (v/v) Brij-35 was added to substrate-only control wells (10 μL). The relative fluorescence intensity was measured at 37 °C for 1 h with readings every 20 s. Activity was read from underneath the microplate, which was covered with a low evaporation lid. […] For each ADAMTS and MMP proteinase, the assay was performed 2–4 times. […] Final rates were expressed as a percentage of substrate cleavage by TS5-5 (mean ± SEM) or in μM s^–1 μM^–1 of proteinase.

[2] = tested on: MMP-9ΔC (catalytic domain of MMP-9); assay: Selectivity studies: cleavage of FRET peptide substrates by MMP-9ΔC; format: biochemical; conditions: substrate 20 μM, after 48 h at an MMP-9 concentration of 30 nM, 37 °C
Method: as §1, §2

TS5-5 (ADAMTS-5) = target: T2, TS5-5 (ADAMTS-5) (Homo sapiens, UniProt Q9UNA0); assay: Determination of kinetic parameters (kcat and Km) for substrate cleavage by TS5-5, inner-filter corrected; format: biochemical; conditions: for decrease in Km compared to the current substrate / lower catalytic rate constant (kcat) compared to the current substrate: TS5-5
T2 construct: ADAMTS-5 (i.e. TS5-5, residues 264–555); FLAG; made in house; host or cells: HEK293 cells (previously transfected stocks)
T2 sequence (Q9UNA0 264-555): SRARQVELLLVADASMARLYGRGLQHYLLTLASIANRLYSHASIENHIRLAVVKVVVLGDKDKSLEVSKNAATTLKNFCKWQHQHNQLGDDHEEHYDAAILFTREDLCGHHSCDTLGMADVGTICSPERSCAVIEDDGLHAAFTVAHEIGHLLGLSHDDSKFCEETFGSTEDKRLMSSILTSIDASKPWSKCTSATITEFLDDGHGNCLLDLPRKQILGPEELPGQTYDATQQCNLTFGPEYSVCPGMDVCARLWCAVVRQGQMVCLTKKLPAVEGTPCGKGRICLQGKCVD
Method: A solution of Abz-TESE↓SRGAIY-Dpa-KK-NH2/3/26 (5 mM) or 19/23 (1 mM) in DMSO underwent a 2-fold serial dilution with freshly prepared TNC buffer containing 0.005% (v/v) Brij-35. This gave initial concentrations in the following range: 222.22 to 0.87 μM (Abz-TESE↓SRGAIY-Dpa-KK-NH2/3/23/26) and 177.78 to 1.39 μM (19). Eight substrate concentrations (180 μL) within these ranges (including outer numbers) were added to a 96-well black microplate in triplicate and incubated at 37 °C (20 min). TNC buffer with 0.005% (v/v) Brij-35 was added to substrate-only control wells in a single replicate (180 μL). TS5-5 proteinase was thawed from −80 or −20 °C, made up in TNC buffer with 0.005% (v/v) Brij-35 (300 nM) and added to substrate wells (20 μL). TNC buffer was added to substrate-only control wells (20 μL). Fluorescence intensity was measured at 37 °C for 1 h with readings every 20 s. The rate of substrate cleavage was determined at each substrate concentration and expressed as the mean ± SEM in μM s^–1. The subsequent data was fitted to the Michaelis–Menten eq 2: [drawing 2] 2 where v is the rate of the reaction, Vmax is the maximal rate of the reaction, Km is the Michaelis constant, and [S] is the substrate concentration. This equation enabled the Km value to be determined. The catalytic rate constant kcat was determined from eq 3: [drawing 3] 3 where [E] is the concentration of proteinase, and kcat and Vmax are as defined previously. These initial Km and kcat parameters were determined from n = 3–4 independent experiments with final values for these parameters reported after a correction for the inner-filter effect.
This was performed based on the protocol described in Liu et al.([40]) to correct for quenching of the released Abz fluorophore by uncleaved substrate. Two sets of initial substrate concentrations were prepared as described in the previous section. Both sets of substrate concentrations (180 μL) were added to a 96-well black microplate in triplicate. Two buffer-alone controls with TNC buffer containing 0.005% (v/v) Brij-35 (180 μL) were also added in triplicate. All solutions were incubated at 37 °C (20 min). Abz fluorophore (1 M) in DMSO was serially diluted to 1 mM in DMSO, before further dilution to 100 μM using TNC buffer containing 0.005% (v/v) Brij-35. TNC buffer containing 0.005% (v/v) Brij-35 (20 μL) was added to the first set of substrate concentrations as well as to the first buffer-alone control. Abz fluorophore (20 μL, 100 μM) was added to the second set of substrate concentrations as well as the second buffer-alone control. The end-point fluorescence intensity was measured at 37 °C using λex = 300 nm and λem = 430 nm. At each substrate concentration, […] to give the actual fluorescence of the Abz fluorophore (RFUAbz). These values were divided by RFUAbz at a substrate concentration of 0 μM to give the correction factor for each concentration. The rates for each substrate concentration described in the previous section were divided by their respective correction factors (Tables S6–S10) to deliver the inner-filter corrected kcat and Km values.

TS4-4 (ADAMTS-4) = target: T3, TS4-4 (ADAMTS-4) (Homo sapiens, UniProt O75173); assay: Selectivity studies: cleavage of FRET peptide substrates by TS4-4; format: biochemical; conditions: substrate 20 μM, TS4-4 50–90 nM, TNC buffer with 0.005% (v/v) Brij-35, 37 °C; mean of 3–4 independent experiments in triplicate
T3 construct: TS4-4, TS5-5 = catalytic and disintegrin domains; made in house; host or cells: HEK293 cells (previously transfected stocks)
T3 sequence (O75173 213-519 limits assumed): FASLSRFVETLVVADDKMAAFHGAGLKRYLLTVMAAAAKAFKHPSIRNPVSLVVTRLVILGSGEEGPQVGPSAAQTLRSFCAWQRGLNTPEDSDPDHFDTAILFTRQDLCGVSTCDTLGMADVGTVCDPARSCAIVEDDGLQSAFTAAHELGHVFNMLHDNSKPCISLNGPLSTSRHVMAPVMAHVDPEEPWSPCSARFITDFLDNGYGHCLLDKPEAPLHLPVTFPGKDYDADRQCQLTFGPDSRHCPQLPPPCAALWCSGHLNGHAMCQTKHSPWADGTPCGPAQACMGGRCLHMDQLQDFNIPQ
Method: as §1, §2

[3] = target: combined catalytic and disintegrin domain of ADAMTS-5 (TS5-5) (UniProt Q9UNA0)
[4] = TS5-5, TNC buffer with 0.005% (v/v) Brij-35, 37 °C, corrected for inner filter effect, mean ± SEM from 3–4 independent experiments in triplicate
[5] = supplementary CSV copy of Table 3, TS5-5, 37 °C

“KY(NO2)NDTESOAK(Abz)AHFUKG [Compound 24]” was tested, and the “rate of cleavage by TS5-5” value [1] was 1.41 × 10^–4 μM s^–1 μM^–1 and the “cleavage by MMP-9ΔC” value [2] was “no signs of cleavage”.

For “KY(NO2)NESESKAK(Abz)VHYKKG (K[Tyr(3-NO2)]NESESKAK(2Abz)V-{H2N-Tyr-Lys-Lys-Gly}) [Compound 25]”, the “rate of cleavage by TS5-5” value [1] was 1.78 × 10^–2 μM s^–1 μM^–1 and the “cleavage by MMP-9ΔC” value [2] was “no signs of cleavage”.

“KY(NO2)QDSESBAK(Abz)JHYUKG [Compound 20]” was tested, and the “rate of cleavage by TS5-5” value [1] was 1.22 × 10^–3 μM s^–1 μM^–1 and the “cleavage by MMP-9ΔC” value [2] was “no signs of cleavage”.

With “KY(NO2)SESESRGK(Abz)IYYKKG (K[Tyr(3-NO2)]SESESRGK(Abz)IYYKKG) [Compound 23]” the “decrease in Km compared to the current substrate” value (TS5-5 (ADAMTS-5)) was roughly 2 fold, the “lower catalytic rate constant (kcat) compared to the current substrate” value (TS5-5 (ADAMTS-5)) was roughly 3 fold and the Km (TS5-5 (ADAMTS-5); [4]) was 64.6 ± 4.6 µM. The kcat (TS5-5 (ADAMTS-5); [4]) was 1.14 ± 0.11 s⁻¹, the kcat/Km (TS5-5 (ADAMTS-5); [4]) was 18200 ± 2940 M⁻¹ s⁻¹ and the kcat (TS5-5 (ADAMTS-5); [5]) was 1.14 ± 0.11 s⁻¹.

For “KY(NO2)TENESRGK(Abz)IYYKKG (K[Tyr(3-NO2)]TENESRGK(Abz)IYYKKG) [Compound 19]”, the “rate of cleavage by TS4-4” value (TS4-4 (ADAMTS-4)) was 0.08–0.10 μM s^–1 μM^–1, the “decrease in Km compared to the current substrate” value (TS5-5 (ADAMTS-5)) was roughly 4 fold and the “lower catalytic rate constant (kcat) compared to the current substrate” value (TS5-5 (ADAMTS-5)) was roughly 7 fold. It also gave a Km (TS5-5 (ADAMTS-5); [4]) of 30.5 ± 2 µM, a kcat (TS5-5 (ADAMTS-5); [4]) of 0.53 ± 0.014 s⁻¹ and a kcat/Km (TS5-5 (ADAMTS-5); [4]) of 17500 ± 1080 M⁻¹ s⁻¹. For the same molecule, the kcat (TS5-5 (ADAMTS-5); [5]) was 0.53 ± 0.014 s⁻¹.

With “KY(NO2)TETESOAK(Abz)IYFKKG [Compound 22]” the “rate of cleavage by TS5-5” value [1] was 7.38 × 10^–2 μM s^–1 μM^–1.

For “ortho-aminobenzoyl(Abz)-TESE↓SRGAIY-N-3-[2,4-dinitrophenyl]-L-2,3-diaminopropionyl(Dpa)-KK-NH2 (peptide)”, the Km of cleavage of the FRET peptide by TS5-5 (Michaelis-Menten fit, corrected for the inner-filter effect, 37 °C, TNC buffer with 0.005% Brij-35) [3] was 125 µM.

B1: KY(NO2)SENESRGK(Abz)IYYKKG (26) (peptide)
peptide: K[Tyr(3-NO2)]SENESRGK(2Abz)IYYKKG
Molecule B1 has a Km of cleavage of the FRET peptide by TS5-5 (Michaelis-Menten fit, corrected for the inner-filter effect, 37 °C, TNC buffer with 0.005% Brij-35) [3] of 76.9 µM.

B2: KY(NO2)TESESRGK(Abz)IYYKKG (3) (peptide)
peptide: K[Tyr(3-NO2)]TESESRGK(2Abz)IYYKKG
Molecule B2 has a Km of cleavage of the FRET peptide by TS5-5 (Michaelis-Menten fit, corrected for the inner-filter effect, 37 °C, TNC buffer with 0.005% Brij-35) [3] of 29.5 µM.

B3: KY(NO2)TENESRGK(Abz)IYYKKG (19) (peptide)
peptide: K[Tyr(3-NO2)]TENESRGK(2Abz)IYYKKG
In the case of B3, the Km of cleavage of the FRET peptide by TS5-5 (Michaelis-Menten fit, corrected for the inner-filter effect, 37 °C, TNC buffer with 0.005% Brij-35) [3] is reported as 30.5 µM.

Reference: paper PMC10009750, “Development of Selective ADAMTS-5 Peptide Substrates to Monitor Proteinase Activity” (Journal of Medicinal Chemistry, 2023)
